Test results: patent publication US20190367620A1 (Merck KGaA, published 2019)
Where a chain is given by its changes, count along the chain named.

Experiments:
Human FGFR1 D2-His6 = biological target: T1, Human FGFR1 D2-His6 (human, UniProt P11362 22-254); test: SPR as in Example 1.8
T1 construct: also called D2 domain; F3FR1c-D2
T1 sequence: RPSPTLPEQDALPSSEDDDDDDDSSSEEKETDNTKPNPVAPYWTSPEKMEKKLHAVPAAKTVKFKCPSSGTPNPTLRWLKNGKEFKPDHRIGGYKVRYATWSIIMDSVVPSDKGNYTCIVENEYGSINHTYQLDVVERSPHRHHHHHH
Method: (§1) Binding affinities of anti-FGFR1 antibodies to FGFR1 were measured by Surface Plasmon Resonance (SPR) using a GE Healthcare BIAcore 4000 instrument as follows. Goat anti-human Fc antibody (Jackson ImmunoResearch Laboratories #109-005-098) was first immobilized on BIAcore carboxymethylated dextran CM5 chip using direct coupling to free amino groups following the procedure described by the manufacturer. Antibodies were then captured on the CM5 biosensor chip to achieve approximately 200 response units (RU). Binding measurements were performed using the running HBS-EP+ buffer. A 2-fold dilution series of His-tagged FGFR1 proteins were injected at a flow rate of 30 μl/min at 25° C. Association rates (kₒₙ, per mol/s) and dissociation rates (koff, per s) were calculated using a simple 1:1 Langmuir binding model (Biacore 4000 Evaluation Software). The equilibrium dissociation constant (KD, mol) was calculated as the ratio of koff/kₒₙ.
(§2) To obtain a finer, residue-level mapping of the epitope and to complement the HD exchange data, molecular modelling and manual inspection of the crystal structure of FGFR1 [(Beenken et al. 2012); PDB record 3OJV] was used to select solvent exposed residues within and around the epitope identified by HD exchange. The selected residues were mutated either to alanine (large to small) or to glycine if the selected residue was alanine. In total 35 point mutants were designed, expressed and purified in HEK cells, and tested for binding to mAb #A08 using surface plasmon resonance as described in Example 1.8. The affinity of the antibody for wild-type and each mutant was determined and used to calculate the contribution of each epitope residue to the binding energy.

[1] = biological target: T2, FGFR1 D2 point mutant H89A (human, UniProt P11362 22-254); test: SPR as in Example 1.8
T2 chain: T1 sequence with H89A
Method: as §1, §2

muFGFR1a-IIIc = biological target: T3, muFGFR1a-IIIc (mouse, UniProt P16092 22-376); test: SPR (Biacore 4000), antibody captured, His-tagged FGFR1 injected; no unit in the table, nM inferred from paragraph 90
T3 construct: Bought, His6 tag; also called mouse FGFR1a-IIIc His6-tagged; murine FGFR1a-IIIc
T3 sequence (looked up): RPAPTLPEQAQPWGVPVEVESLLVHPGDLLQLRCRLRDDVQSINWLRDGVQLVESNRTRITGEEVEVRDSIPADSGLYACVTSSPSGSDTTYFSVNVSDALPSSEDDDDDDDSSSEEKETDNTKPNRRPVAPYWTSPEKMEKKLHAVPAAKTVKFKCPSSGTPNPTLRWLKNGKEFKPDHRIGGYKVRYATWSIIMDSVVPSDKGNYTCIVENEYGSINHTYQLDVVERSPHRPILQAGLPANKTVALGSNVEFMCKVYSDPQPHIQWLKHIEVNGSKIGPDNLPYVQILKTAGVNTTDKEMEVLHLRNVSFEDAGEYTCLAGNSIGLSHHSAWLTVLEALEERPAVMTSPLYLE
Method: as §1

[2] = biological target: T4, human FGFR1b-IIIb extracellular domain with a HIS tag (human); test: as above
T4 construct: also called huFGFR1b-IIIb; hFGFR1b-IIIb
T4 chain: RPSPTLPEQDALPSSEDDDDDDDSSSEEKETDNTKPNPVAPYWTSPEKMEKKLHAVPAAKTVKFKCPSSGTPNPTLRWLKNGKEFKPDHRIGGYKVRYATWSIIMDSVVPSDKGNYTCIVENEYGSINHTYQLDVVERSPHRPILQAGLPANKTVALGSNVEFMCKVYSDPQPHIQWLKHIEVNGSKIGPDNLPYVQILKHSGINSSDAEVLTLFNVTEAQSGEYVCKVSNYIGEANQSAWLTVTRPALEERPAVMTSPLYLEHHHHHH
Method: as §1

ratFGFR1a-IIIc = biological target: T5, ratFGFR1a-IIIc (rat, UniProt Q04589 22-376); test: as above
T5 construct: Bought, His6 tag; also called rat FGFR1a-IIIc His6-tagged
T5 sequence (looked up): T3 sequence (looked up) with V53A, S83N, N164S, V287D
Method: as §1

[3] = biological target: T6, human FGFR1b-IIIc extracellular domain with a HIS tag (human, UniProt P11362 22-376); test: as above
T6 construct: also called huFGFR1b-IIIc; hFGFR1b-IIIc
T6 sequence: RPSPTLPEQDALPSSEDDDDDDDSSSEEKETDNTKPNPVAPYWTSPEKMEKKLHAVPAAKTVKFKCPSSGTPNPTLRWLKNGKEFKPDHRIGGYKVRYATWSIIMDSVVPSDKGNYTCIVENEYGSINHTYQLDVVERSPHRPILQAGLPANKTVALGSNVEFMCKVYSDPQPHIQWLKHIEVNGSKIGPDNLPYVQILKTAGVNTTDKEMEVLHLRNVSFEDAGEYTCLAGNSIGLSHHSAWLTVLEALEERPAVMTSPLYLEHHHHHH
Method: as §1

rheFGFR1a-IIIc = biological target: T7, rheFGFR1a-IIIc (rhesus monkey); test: as above
T7 construct: Bought, His6 tag; also called rhesus monkey FGFR1a-IIIc His6-tagged
Method: as §1

Kd (Human FGFR1 D2-His6): 0.19 nM
Kd [1]: 0.19 nM
Kd (muFGFR1a-IIIc): 2.3 nM
Kd [2]: 0.01 nM
Kd (ratFGFR1a-IIIc): 2.2 nM
Kd [3]: 0.017 nM
Kd (rheFGFR1a-IIIc): 0.46 nM
B1: mAb #A08 (antibody, V domains shown)
VH: EVQLQESGPGLVKPSGTLSLTCAVSGGSISSNNWWSWVRQPPGKGLEWIGEIYHSGSTSYNPSLKSRVTISVDKSKNQFSLKLNSVTAADTAVYYCARGTDWFDPWGQGTLVTVSS
VL: QAVLTQPPSVSVAPGQTARITCGGNNIGSESVHWYQQKPGQAPVLVVYDDSDRPSGIPERFSGSNSGNTATLTISRVEAGDEADYYCQVWDSTSDHRVFGGGTKLTVL
notes: Only variable domains are tied to the name mAb #A08 (hit); also called #A08 hit; mAb #08
